# Experimental data published in article PMC3192257 (Molecular microbiology, 2011).
# B1: 6His-Hag fusion protein (flagellin) (natural protein)
# chain: not shown
# B2: His-CsrA (CsrA containing six His residues at the C-terminus) (natural protein, Bacillus subtilis, UniProt P33911 1-74, looked up)
# chain: MLVLSRKINEAIQIGADIEVKVIAVEGDQVKLGIDAPKHIDIHRKEIYLTIQEENNRAAALSSDVISALSSQKK
# B3: FliW (natural protein, Bacillus subtilis (strain 3610), UniProt P96503 1-143, looked up)
# chain: MIIHTKYHGQMNIKEEQIILFESGIPGFLEEKQFVILPLSEDSPFVALQSVTSENLAFIVVSPFIFFKNYEFDLDESTAELLDIDNIQDVEVMTILTMAEPFEKSTANLLAPIIVNRKNMMAKQVVLHDSSYTTKHPIGGESC
# Tests used:
# FliW = target: B3; test: ITC
# [1] = target: B1; test: ITC
dH (FliW),stoichiometry N (FliW),Kd (FliW),Kd [1],Binder
-22 kcal/mol,1.29,–,–,B1
-15.4 kcal/mol,0.46,20 nM,–,B2
–,–,–,140 nM,B3
